In publication PMC10821591:

Biological target: GAP domain of human Ral GTPase Accelerating Protein α1 (residues 1807-1988) (human) (UniProt Q6GYQ0)
Experiment: ITC; MicroCal iTC200, 20 °C; cell: RalGAPα1(GAP) 15 μM; syringe: MAF1 150 μM, 19 injections of 2 μl; 20 mM Hepes pH 7.5, 150 mM NaCl, 1 mM TCEP; one-site model

Chain of GAP domain of human Ral GTPase Accelerating Protein α1 (residues 1807-1988) (human) (Q6GYQ0 1807-1988): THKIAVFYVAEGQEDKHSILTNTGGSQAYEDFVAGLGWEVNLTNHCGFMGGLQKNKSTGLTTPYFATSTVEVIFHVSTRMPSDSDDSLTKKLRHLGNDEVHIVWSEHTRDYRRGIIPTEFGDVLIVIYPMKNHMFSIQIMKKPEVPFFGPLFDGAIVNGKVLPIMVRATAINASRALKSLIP

Substance	Kd	dH	stoichiometry N
T. gondii Mitochondrial Association Factor 1b, structured C-terminal domain (residues 173-443) (domain or fragment)	334 nM	-14.6 kcal/mol	1
MAF1b STL-RKK (MAF1b 173-443, S438R/T439K/L441K) (domain or fragment)	518 nM		
